Measured values reported in PMC3902925, “The double PHD finger domain of MOZ/MYST3 induces α-helical structure of the histone H3 tail to facilitate acetylation and methylation sampling and modification” (Nucleic Acids Research, 2013).

Target: histone H3 of calf thymus core histones (bovine (calf thymus), UniProt P68432 1-136)
Experiment: cell-based or functional assay

B1: GST-MOZ DPF-MYST (194–810) (enzyme)
chain: LPHEKDKPVAEPIPICSFCLGTKEQNREKKPEELISCADCGNSGHPSCLKFSPELTVRVKALRWQCIECKTCSSCRDQGKNADNMLFCDSCDRGFHMECCDPPLTRMPKGMWICQICRPRKKGRKLLQKKAAQIKRRYTNPIGRPKNRLKKQNTVSKGPFSKVRTGPGRGRKRKITLSSQSASSSSEEGYLERIDGLDFCRDSNVSLKFNKKTKGLIDGLTKFFTPSPDGRKARGEVVDYSEQYRIRKRGNRKSSTSDWPTDNQDGWDGKQENEERLFGSQEIMTEKDMELFRDIQEQALQKVGVTGPPDPQVRCPSVIEFGKYEIHTWYSSPYPQEYSRLPKLYLCEFCLKYMKSRTILQQHMKKCGWFHPPANEIYRKNNISVFEVDGNVSTIYCQNLCLLAKLFLDHKTLYYDVEPFLFYVLTQNDVKGCHLVGYFSKEKHCQQKYNVSCIMILPQYQRKGYGRFLIDFSYLLSKREGQAGSPEKPLSDLGRLSYMAYWKSVILECLYHQNDKQISIKKLSKLTGICPQDITSTLHHLRMLDFRSDQFVIIRREKLIQDHMAKLQLNLRPVDVDPECLRWTPVIVSNSVVSEEEEEEAEEGENEEPQCQERELE
initial rate of acetylation of core histones in time course HAT assays, DPF-MYST (194–810) against the MYST domain (510–810) alone: ≥ 8 fold
